# Legend:
# c-Src SH2 = experiment: SH2 binding enrichment of the phosphorylated peptide, bacterial display (enrichment ratio); higher = better substrate or ligand; peptides without Tyr show the background
# Grb2 SH2 = Grb2 SH2 (UniProt P62993); experiment: as above
# SHP2-C SH2 = experiment: as above
# EPHB1 = EPHB1 (UniProt P54762); experiment: phosphorylation enrichment, bacterial display (enrichment ratio); higher = better substrate or ligand; peptides without Tyr show the background
# Jak2 = Jak2 (UniProt O60674); experiment: as above
# Jak2, sequence (O60674 whole entry, looked up): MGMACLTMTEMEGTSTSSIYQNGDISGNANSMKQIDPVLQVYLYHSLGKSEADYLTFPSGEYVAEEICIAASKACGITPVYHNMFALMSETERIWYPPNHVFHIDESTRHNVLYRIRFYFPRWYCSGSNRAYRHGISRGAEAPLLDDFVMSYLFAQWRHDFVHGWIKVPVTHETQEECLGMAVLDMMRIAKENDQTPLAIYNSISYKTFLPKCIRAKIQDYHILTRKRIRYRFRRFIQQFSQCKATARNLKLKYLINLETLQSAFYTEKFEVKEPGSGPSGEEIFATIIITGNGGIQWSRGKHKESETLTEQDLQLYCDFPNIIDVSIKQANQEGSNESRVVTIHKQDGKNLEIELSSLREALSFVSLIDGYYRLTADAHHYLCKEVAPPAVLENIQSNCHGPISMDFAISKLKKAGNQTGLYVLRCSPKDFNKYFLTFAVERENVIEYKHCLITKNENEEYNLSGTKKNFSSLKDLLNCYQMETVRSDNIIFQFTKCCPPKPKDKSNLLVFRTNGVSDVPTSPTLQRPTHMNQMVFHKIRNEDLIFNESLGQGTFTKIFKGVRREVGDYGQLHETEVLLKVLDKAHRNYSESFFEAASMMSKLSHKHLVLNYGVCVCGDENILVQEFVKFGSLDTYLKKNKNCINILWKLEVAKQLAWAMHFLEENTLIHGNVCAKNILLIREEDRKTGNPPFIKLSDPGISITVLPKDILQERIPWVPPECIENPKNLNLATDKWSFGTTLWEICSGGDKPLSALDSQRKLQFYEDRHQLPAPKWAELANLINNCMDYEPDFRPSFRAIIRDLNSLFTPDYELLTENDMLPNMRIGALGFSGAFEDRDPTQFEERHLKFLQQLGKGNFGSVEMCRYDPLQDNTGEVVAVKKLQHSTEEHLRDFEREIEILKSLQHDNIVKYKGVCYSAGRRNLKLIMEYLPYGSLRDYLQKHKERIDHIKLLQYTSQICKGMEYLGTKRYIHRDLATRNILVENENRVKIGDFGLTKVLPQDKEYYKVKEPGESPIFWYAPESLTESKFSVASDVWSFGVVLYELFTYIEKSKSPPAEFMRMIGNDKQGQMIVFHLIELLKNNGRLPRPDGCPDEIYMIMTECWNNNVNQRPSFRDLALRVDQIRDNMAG
# c-Src = experiment: as above
# MERTK = MERTK (UniProt Q12866); experiment: as above
# MERTK, sequence (Q12866 whole entry, looked up): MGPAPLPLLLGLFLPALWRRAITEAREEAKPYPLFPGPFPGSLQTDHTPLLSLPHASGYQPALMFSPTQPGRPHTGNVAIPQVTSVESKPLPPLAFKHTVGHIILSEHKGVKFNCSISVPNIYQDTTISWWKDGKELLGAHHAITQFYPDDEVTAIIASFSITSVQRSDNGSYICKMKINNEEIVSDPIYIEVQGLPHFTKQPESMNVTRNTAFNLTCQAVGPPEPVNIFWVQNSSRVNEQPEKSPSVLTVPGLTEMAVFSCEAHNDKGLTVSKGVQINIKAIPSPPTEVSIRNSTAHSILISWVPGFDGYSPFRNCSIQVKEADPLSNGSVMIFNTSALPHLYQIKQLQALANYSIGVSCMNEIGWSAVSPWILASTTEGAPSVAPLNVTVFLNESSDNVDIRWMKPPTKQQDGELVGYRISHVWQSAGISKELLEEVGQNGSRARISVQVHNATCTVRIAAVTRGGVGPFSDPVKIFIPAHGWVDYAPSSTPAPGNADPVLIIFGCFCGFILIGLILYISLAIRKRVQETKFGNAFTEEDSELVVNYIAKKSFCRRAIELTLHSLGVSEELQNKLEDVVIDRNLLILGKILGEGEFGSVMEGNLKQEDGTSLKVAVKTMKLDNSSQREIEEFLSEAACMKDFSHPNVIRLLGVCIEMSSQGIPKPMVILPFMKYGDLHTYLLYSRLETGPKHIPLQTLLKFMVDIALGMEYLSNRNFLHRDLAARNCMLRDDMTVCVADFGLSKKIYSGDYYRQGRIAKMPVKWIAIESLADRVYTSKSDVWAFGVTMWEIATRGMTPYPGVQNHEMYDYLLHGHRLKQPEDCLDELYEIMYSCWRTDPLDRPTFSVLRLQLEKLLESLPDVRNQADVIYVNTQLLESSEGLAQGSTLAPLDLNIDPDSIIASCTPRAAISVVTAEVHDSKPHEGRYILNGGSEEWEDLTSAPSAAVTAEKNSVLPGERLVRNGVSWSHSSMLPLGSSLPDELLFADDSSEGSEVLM
# Fes = Fes (UniProt P07332); experiment: as above
# Fes, sequence (P07332 whole entry, looked up): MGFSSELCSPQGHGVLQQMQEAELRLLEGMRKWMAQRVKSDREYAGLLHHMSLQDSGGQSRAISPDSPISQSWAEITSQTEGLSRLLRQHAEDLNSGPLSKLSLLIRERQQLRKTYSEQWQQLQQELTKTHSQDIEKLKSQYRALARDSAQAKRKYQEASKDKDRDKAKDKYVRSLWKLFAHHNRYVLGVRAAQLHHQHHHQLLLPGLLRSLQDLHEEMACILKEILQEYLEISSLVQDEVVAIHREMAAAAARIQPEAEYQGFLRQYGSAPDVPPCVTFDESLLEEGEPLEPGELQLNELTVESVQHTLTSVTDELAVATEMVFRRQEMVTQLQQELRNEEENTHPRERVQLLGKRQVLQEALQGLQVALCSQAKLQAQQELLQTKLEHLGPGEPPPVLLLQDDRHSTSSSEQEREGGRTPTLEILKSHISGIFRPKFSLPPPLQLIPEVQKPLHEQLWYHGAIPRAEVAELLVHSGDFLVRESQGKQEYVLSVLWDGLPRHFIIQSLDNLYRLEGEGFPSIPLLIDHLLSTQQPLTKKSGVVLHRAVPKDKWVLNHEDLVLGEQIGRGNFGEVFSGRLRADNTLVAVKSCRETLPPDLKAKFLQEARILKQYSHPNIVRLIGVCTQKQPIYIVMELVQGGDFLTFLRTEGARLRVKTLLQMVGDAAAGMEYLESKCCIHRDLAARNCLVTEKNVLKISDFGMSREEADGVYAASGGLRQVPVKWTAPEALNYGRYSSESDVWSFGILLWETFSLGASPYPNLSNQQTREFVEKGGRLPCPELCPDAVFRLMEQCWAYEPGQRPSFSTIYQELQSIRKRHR
# Fyn = Fyn (UniProt P06241); experiment: as above
# Fyn, sequence (P06241 whole entry, looked up): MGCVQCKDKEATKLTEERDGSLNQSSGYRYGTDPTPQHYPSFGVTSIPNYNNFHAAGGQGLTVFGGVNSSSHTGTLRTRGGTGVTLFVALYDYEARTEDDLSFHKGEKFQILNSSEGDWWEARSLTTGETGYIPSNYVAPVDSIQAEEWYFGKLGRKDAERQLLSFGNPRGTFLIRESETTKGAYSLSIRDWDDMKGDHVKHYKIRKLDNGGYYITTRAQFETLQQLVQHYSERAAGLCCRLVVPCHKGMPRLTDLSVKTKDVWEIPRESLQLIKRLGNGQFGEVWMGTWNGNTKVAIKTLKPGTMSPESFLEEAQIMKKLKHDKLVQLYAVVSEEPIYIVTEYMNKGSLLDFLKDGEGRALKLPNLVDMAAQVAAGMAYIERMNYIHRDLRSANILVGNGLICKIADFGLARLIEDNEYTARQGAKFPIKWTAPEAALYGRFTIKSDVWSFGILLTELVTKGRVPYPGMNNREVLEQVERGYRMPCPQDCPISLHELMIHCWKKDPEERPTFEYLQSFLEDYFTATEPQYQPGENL
# Hck = Hck (UniProt P08631); experiment: as above
# Hck, sequence (P08631 whole entry, looked up): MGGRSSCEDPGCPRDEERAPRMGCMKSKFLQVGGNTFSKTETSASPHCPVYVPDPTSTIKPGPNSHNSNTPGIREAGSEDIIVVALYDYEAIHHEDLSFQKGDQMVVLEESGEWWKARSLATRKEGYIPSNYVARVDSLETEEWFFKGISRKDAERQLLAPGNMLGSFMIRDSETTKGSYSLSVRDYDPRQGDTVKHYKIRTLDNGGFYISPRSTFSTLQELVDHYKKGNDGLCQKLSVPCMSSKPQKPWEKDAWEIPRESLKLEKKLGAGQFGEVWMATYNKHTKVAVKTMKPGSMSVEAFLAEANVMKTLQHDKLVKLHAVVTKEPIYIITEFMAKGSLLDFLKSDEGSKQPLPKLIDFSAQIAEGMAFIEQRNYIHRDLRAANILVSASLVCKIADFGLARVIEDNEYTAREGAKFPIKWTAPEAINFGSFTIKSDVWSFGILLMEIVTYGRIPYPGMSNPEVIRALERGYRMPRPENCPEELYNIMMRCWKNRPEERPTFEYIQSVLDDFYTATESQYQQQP
# c-Abl (mouse) = experiment: as above
# FGFR3 = FGFR3 (UniProt P22607); experiment: as above
# Fer (mouse) = experiment: as above
# EPHB2 = EPHB2 (UniProt P29323); experiment: as above
# FGFR1 = FGFR1 (UniProt P11362); experiment: as above
# FGFR1, sequence (P11362 whole entry, looked up): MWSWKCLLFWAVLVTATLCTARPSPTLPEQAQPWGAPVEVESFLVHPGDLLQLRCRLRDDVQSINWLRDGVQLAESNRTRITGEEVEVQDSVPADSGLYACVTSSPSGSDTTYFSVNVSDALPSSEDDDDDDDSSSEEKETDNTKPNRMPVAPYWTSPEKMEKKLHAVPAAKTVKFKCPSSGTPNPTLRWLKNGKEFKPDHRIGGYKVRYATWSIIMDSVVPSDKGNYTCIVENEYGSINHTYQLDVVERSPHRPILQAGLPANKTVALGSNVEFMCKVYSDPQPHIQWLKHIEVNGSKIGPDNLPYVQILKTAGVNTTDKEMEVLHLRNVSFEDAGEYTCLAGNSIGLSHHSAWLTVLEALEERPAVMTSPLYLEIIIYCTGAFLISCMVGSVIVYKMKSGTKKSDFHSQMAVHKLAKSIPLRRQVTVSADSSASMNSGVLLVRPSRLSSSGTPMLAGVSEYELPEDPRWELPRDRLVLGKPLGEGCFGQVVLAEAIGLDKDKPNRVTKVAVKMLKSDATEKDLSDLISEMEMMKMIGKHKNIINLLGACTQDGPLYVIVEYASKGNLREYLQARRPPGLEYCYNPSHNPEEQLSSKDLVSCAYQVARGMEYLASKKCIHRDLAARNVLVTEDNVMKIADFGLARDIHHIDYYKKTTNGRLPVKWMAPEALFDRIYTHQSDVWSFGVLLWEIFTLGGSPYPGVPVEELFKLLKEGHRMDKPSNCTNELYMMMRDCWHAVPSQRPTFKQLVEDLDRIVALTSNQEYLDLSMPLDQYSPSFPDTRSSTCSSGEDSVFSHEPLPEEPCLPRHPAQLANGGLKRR
# AncSZ = experiment: as above
# 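Wherever SH2 binding enrichment of the phosphorylated peptide, bacterial display is given: peptide library displayed on the E. coli surface as eCPX fusions, selected cells deep-sequenced, score is each peptide's frequency after selection divided by its frequency in the input.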
# 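Wherever phosphorylation enrichment, bacterial display is given: 11-residue human phosphosite peptides and single-mutation variants displayed on the E. coli surface, counted by deep sequencing, each peptide's frequency after selection divided by its frequency in the unselected input library; frequency after pTyr selection over input frequency; kinase dosed for 20-30% of maximal phosphorylation in three min.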
# Grb2 SH2, sequence (P62993 whole entry, looked up): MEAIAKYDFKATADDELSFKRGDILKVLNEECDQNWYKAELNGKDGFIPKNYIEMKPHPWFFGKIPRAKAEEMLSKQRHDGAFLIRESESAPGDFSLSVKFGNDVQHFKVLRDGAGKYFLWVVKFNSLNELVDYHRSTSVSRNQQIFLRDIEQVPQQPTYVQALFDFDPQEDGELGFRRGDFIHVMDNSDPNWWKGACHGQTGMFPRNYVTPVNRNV
Sequence,SH2 binding enrichment (c-Src SH2),SH2 binding enrichment (Grb2 SH2),SH2 binding enrichment (SHP2-C SH2),phosphorylation enrichment (EPHB1),phosphorylation enrichment (Jak2),phosphorylation enrichment (c-Src),phosphorylation enrichment (MERTK),phosphorylation enrichment (Fes),phosphorylation enrichment (Fyn),phosphorylation enrichment (Hck),phosphorylation enrichment (c-Abl (mouse)),phosphorylation enrichment (FGFR3),phosphorylation enrichment (Fer (mouse)),phosphorylation enrichment (EPHB2),phosphorylation enrichment (FGFR1),phosphorylation enrichment (AncSZ)
RRIHSHRGHLW [VHL_Y112_Y112H],0.378,0.906,0.262,0.773,0.659,0.828,0.621,1.01,0.604,0.737,0.909,0.701,0.689,0.732,0.558,0.918
RRIHSYRCHLW [VHL_Y112_G114C],0.651,0.707,0.61,0.564,0.762,0.748,0.786,1.25,0.767,0.629,0.822,0.641,0.68,0.477,0.642,0.967
RRNNSYTCFTA [SLC20A2_Y386_YF],0.695,0.7,0.509,0.96,1.95,1.69,1.3,1.68,1.19,0.771,1.86,1.33,0.734,1.65,0.886,2.81
RSAGKYDVYFI [MECP2_Y120_L124F],0.639,0.923,0.804,0.691,0.925,3.15,1.02,1.34,5.26,4.46,0.923,0.484,0.464,0.467,0.535,1.09
RSDSSYRMSAT [NHS_Y1532],0.476,0.844,0.809,0.592,0.598,0.585,0.68,0.757,0.747,0.775,0.679,0.754,0.541,0.673,0.717,0.764
RTVPLYESLRK [DDB1_Y718_P721L],0.78,1.04,1.07,23,0.547,8.53,8.17,1.15,11.7,12.4,1.07,0.437,11.3,26.1,0.466,0.668
RVGNMYMRGLS [ABCG8_Y209_V210M],1.01,1.42,1.7,0.615,0.663,0.552,0.697,0.966,0.657,0.615,0.453,0.596,0.469,0.559,0.704,0.672
SAEKAYHEQLS [TUBA1A_Y282],0.506,0.951,0.785,0.462,0.619,0.369,0.418,0.844,0.428,0.443,0.511,0.572,0.425,0.424,0.604,0.558
SCRENYSFSEE [LEMD3_Y258_D260Y_YF],0.807,1.05,0.716,0.709,0.988,0.588,0.38,1.08,0.501,0.509,0.791,0.75,0.53,0.725,0.452,1.1
SDPIIYTLENI [ADGRE1_Y534],0.519,0.936,0.777,0.568,0.948,5.13,1.43,1.31,7.17,1.49,0.653,0.724,7.52,0.559,0.491,0.963
SEDSEYFRAFE [CASQ2_Y178_K180R_YF],0.439,0.874,0.559,0.633,1.26,0.693,0.476,1.48,0.545,0.524,1.31,0.854,0.511,0.591,0.586,1.99
SEKVVYRRFTE [NCF1_Y41],0.42,0.752,0.44,0.39,0.61,0.438,0.438,0.671,0.432,0.414,0.527,0.472,0.387,0.423,0.406,0.663
SFPSFYTSHVQ [NEFL_Y443_YF],0.47,0.889,1.1,0.677,0.657,0.509,1.23,0.857,0.563,0.548,0.498,0.609,0.509,0.584,0.5,0.874
SGDINYGQFAQ [PLCG1_Y210_T209N],0.526,1.07,0.596,0.478,0.631,0.647,0.387,0.683,0.554,0.65,0.874,0.548,0.423,0.63,0.289,0.727
SGKSEYLLPVA [MYLK_Y611_R607G],0.383,0.801,0.465,0.486,0.721,0.453,0.397,0.89,0.453,0.362,1.17,0.554,0.45,0.424,0.456,1.08
